As usually defined, the Kd is a measure of binding affinity in units of concentration. Low readings indicate higher affinity, high ones lower affinity.

Among the data in publication PMC2140218 are fold higher Kd than full length Stu2p and Kd values, retold here.

Test [1] concerns the target taxol-stabilized bovine brain microtubules (bovine) (UniProt Q6B856). The experiment in a line: co-sedimentation.
The target is the same in test [2]. The experiment in a line: co-sedimentation. This is another data set of the same source.

Read-outs that look alike come from different tables or passages of the source. Bounds are passed on as bounds.

B1: Stu2p N658 (domain or fragment)
chain: EKLIEEYKYRLQKLQNDEMIWTKERQSLLEKMNNTENYKIEMIKENEMLREQLKEAQSKLNEKNIQLRSKEIDVNKLSDRVLSLENELRNMEIELDRNKKRNDTNLQSMGTISSYSIPSSTVSSNYGVKSLSSALPFKEEEDVRRKEDVNYERRSSESIGDLPHRVNSLNIRPYRKNGTGVSSVSDDLDIDFNDSFASEESYKRAAAVTSTLKARIEKMKAKSRREGTTRT
modifications: [35S]methionine label
With B1, in test [1], the fold higher Kd than full length Stu2p was above 50 fold.

B2: Stu2p N558 (domain or fragment)
chain: KTLPNFSIASGSTHSTIETNKQTGPMENKFLLKKSSVLPSKRVASSPLRNDNKSKVNPIGSVASASKPSMVAANNKSRVLLTSKSLATPKNVVANSTDKNEKLIEEYKYRLQKLQNDEMIWTKERQSLLEKMNNTENYKIEMIKENEMLREQLKEAQSKLNEKNIQLRSKEIDVNKLSDRVLSLENELRNMEIELDRNKKRNDTNLQSMGTISSYSIPSSTVSSNYGVKSLSSALPFKEEEDVRRKEDVNYERRSSESIGDLPHRVNSLNIRPYRKNGTGVSSVSDDLDIDFNDSFASEESYKRAAAVTSTLKARIEKMKAKSRREGTTRT
modifications: [35S]methionine label
Turning to B2, the fold higher Kd than full length Stu2p in test [1] was determined as 1.4 fold.

B3: Stu2p C657 (domain or fragment)
chain: MSGEEEVDYTTLPLEERLTYKLWKARLEAYKELNQLFRNSVGDISRDDNIQIYWRDPTLFAQYITDSNVVAQEQAIVALNSLIDAFASSSLKNAHNITLISTWTPLLVEKGLTSSRATTKTQSMSCILSLCGLDTSITQSVELVIPFFEKKLPKLIAAAANCVYELMAAFGLTNVNVQTFLPELLKHVPQLAGHGDRNVRSQTMNLIVEIYKVTGNNSDLLEEILFKKLKPIQVKDLHKLFAKVGDEPSSSKMLFEWEKRELEKKRSQEEEARKRKSILSNDEGEYQIDKDGDTLMGMETDMPPSKQQSGVQIDTFSMLPEETILDKLPKDFQERITSSKWKDRVEALEEFWDSVLSQTKKLKSTSQNYSNLLGIYGHIIQKDANIQAVALAAQSVELICDKLKTPGFSKDYVSLVFTPLLDRTKEKKPSVIEAIRKALLTICKYYDPLASSGRNEDMLKDILEHMKHKTPQIRMECTQLFNASMKEEKDGYSTLQRYLKDEVVPIVIQIVNDTQPAIRTIGFESFAILIKIFGMNTFVKTLEHLDNLKRKKIEETVKTLPNFSIASGSTHSTIETNKQTGPMENKFLLKKSSVLPSKRVASSPLRNDNKSKVNPIGSVASASKPSMVAANNKSRVLLTSKSLATPKNVVANSTDKN
modifications: [35S]methionine label
B3 yielded a fold higher Kd than full length Stu2p in test [1] of 1.6 fold.

B4: Stu2p N612 (domain or fragment)
chain: KVNPIGSVASASKPSMVAANNKSRVLLTSKSLATPKNVVANSTDKNEKLIEEYKYRLQKLQNDEMIWTKERQSLLEKMNNTENYKIEMIKENEMLREQLKEAQSKLNEKNIQLRSKEIDVNKLSDRVLSLENELRNMEIELDRNKKRNDTNLQSMGTISSYSIPSSTVSSNYGVKSLSSALPFKEEEDVRRKEDVNYERRSSESIGDLPHRVNSLNIRPYRKNGTGVSSVSDDLDIDFNDSFASEESYKRAAAVTSTLKARIEKMKAKSRREGTTRT
modifications: [35S]methionine label
On to B4, for which, in test [1], the fold higher Kd than full length Stu2p is 3.5 fold.

B5: Stu2p C611 (domain or fragment)
chain: MSGEEEVDYTTLPLEERLTYKLWKARLEAYKELNQLFRNSVGDISRDDNIQIYWRDPTLFAQYITDSNVVAQEQAIVALNSLIDAFASSSLKNAHNITLISTWTPLLVEKGLTSSRATTKTQSMSCILSLCGLDTSITQSVELVIPFFEKKLPKLIAAAANCVYELMAAFGLTNVNVQTFLPELLKHVPQLAGHGDRNVRSQTMNLIVEIYKVTGNNSDLLEEILFKKLKPIQVKDLHKLFAKVGDEPSSSKMLFEWEKRELEKKRSQEEEARKRKSILSNDEGEYQIDKDGDTLMGMETDMPPSKQQSGVQIDTFSMLPEETILDKLPKDFQERITSSKWKDRVEALEEFWDSVLSQTKKLKSTSQNYSNLLGIYGHIIQKDANIQAVALAAQSVELICDKLKTPGFSKDYVSLVFTPLLDRTKEKKPSVIEAIRKALLTICKYYDPLASSGRNEDMLKDILEHMKHKTPQIRMECTQLFNASMKEEKDGYSTLQRYLKDEVVPIVIQIVNDTQPAIRTIGFESFAILIKIFGMNTFVKTLEHLDNLKRKKIEETVKTLPNFSIASGSTHSTIETNKQTGPMENKFLLKKSSVLPSKRVASSPLRNDNKS
modifications: [35S]methionine label
B5: the fold higher Kd than full length Stu2p in test [1] worked out at 6 fold.

B6: Stu2p (natural protein)
chain: MSGEEEVDYTTLPLEERLTYKLWKARLEAYKELNQLFRNSVGDISRDDNIQIYWRDPTLFAQYITDSNVVAQEQAIVALNSLIDAFASSSLKNAHNITLISTWTPLLVEKGLTSSRATTKTQSMSCILSLCGLDTSITQSVELVIPFFEKKLPKLIAAAANCVYELMAAFGLTNVNVQTFLPELLKHVPQLAGHGDRNVRSQTMNLIVEIYKVTGNNSDLLEEILFKKLKPIQVKDLHKLFAKVGDEPSSSKMLFEWEKRELEKKRSQEEEARKRKSILSNDEGEYQIDKDGDTLMGMETDMPPSKQQSGVQIDTFSMLPEETILDKLPKDFQERITSSKWKDRVEALEEFWDSVLSQTKKLKSTSQNYSNLLGIYGHIIQKDANIQAVALAAQSVELICDKLKTPGFSKDYVSLVFTPLLDRTKEKKPSVIEAIRKALLTICKYYDPLASSGRNEDMLKDILEHMKHKTPQIRMECTQLFNASMKEEKDGYSTLQRYLKDEVVPIVIQIVNDTQPAIRTIGFESFAILIKIFGMNTFVKTLEHLDNLKRKKIEETVKTLPNFSIASGSTHSTIETNKQTGPMENKFLLKKSSVLPSKRVASSPLRNDNKSKVNPIGSVASASKPSMVAANNKSRVLLTSKSLATPKNVVANSTDKNEKLIEEYKYRLQKLQNDEMIWTKERQSLLEKMNNTENYKIEMIKENEMLREQLKEAQSKLNEKNIQLRSKEIDVNKLSDRVLSLENELRNMEIELDRNKKRNDTNLQSMGTISSYSIPSSTVSSNYGVKSLSSALPFKEEEDVRRKEDVNYERRSSESIGDLPHRVNSLNIRPYRKNGTGVSSVSDDLDIDFNDSFASEESYKRAAAVTSTLKARIEKMKAKSRREGTTRT
modifications: [35S]methionine label
On to B6, for which the Kd was found to be 560 nM in test [2] and 540 nM in test [1].

B7: Stu2p C557 (domain or fragment)
chain: MSGEEEVDYTTLPLEERLTYKLWKARLEAYKELNQLFRNSVGDISRDDNIQIYWRDPTLFAQYITDSNVVAQEQAIVALNSLIDAFASSSLKNAHNITLISTWTPLLVEKGLTSSRATTKTQSMSCILSLCGLDTSITQSVELVIPFFEKKLPKLIAAAANCVYELMAAFGLTNVNVQTFLPELLKHVPQLAGHGDRNVRSQTMNLIVEIYKVTGNNSDLLEEILFKKLKPIQVKDLHKLFAKVGDEPSSSKMLFEWEKRELEKKRSQEEEARKRKSILSNDEGEYQIDKDGDTLMGMETDMPPSKQQSGVQIDTFSMLPEETILDKLPKDFQERITSSKWKDRVEALEEFWDSVLSQTKKLKSTSQNYSNLLGIYGHIIQKDANIQAVALAAQSVELICDKLKTPGFSKDYVSLVFTPLLDRTKEKKPSVIEAIRKALLTICKYYDPLASSGRNEDMLKDILEHMKHKTPQIRMECTQLFNASMKEEKDGYSTLQRYLKDEVVPIVIQIVNDTQPAIRTIGFESFAILIKIFGMNTFVKTLEHLDNLKRKKIEETV
modifications: [35S]methionine label
In turn, B7 registered a fold higher Kd than full length Stu2p in test [1] of 30 fold.
